Experimental data taken from the DeepSol protein solubility set.

test: soluble on expression in E. coli; label from the status in PepcDB or PDB records

Soluble on expression in E. coli, soluble:
MGWKMQATVTEIGKHAIDDSEKMIILFGETATDTLKQHAVIQSFPEKDQVTLAEGDHLKIGDTNYTITKVGSFANSNLQSIAHSTLIFADAPTDEDDVIRNGVYLTPHQLPKITIGTTIDYLVNGA
MGYFSNAQRHAYESLLPRYGIPLTEEPVDLDSIFGRTAPGILEIGSGMGETTAEIARQHPEKDFIAIEVHAPGIGSLLGQIEKHRLTNLRIIPHDAKLVLQQMFTSESLDGIHIFFPDPWPKARHHKRRLIQPDFVSLLCDRLKPGGYLHIATDWEDYATHILHVLRSEERFVNTAVDYAARPAYRPLTKFEQRGMKLGHTIRDIIFTRTALEHHHHHH
MGYHGGTMRVLGRRIYWRWYGEVLLEGGVTLRMTGDVAKWLRPGDRVRLRTEFKKPVLGFDEYALEAVFPLWPPFAKTLEHVRESPFGGKAYRYRLKVREATYEGDYEAIAELEQFHYASEKEVVALWVCTQCQKTLPANARPLCDCGGEARLKEIRGSTPASRFLVLELAERLPFEPRILGYLRLDPPIPRMHRRTPEGVERDIRERIFPRDWFHPTYEGGADWQRALDRVNTAAARIARVVVHPDYRSEGFGALLVRVALEWAKERGAPEARREKHLVYTIAQMARYHPFFEKVGFRYLFDTASGRPVLFYPLTEEAEAHLERFLREDPYAKAHGGRLYKPRFGRVPGLPGPIRLRGVHKAYRSHLDLEGLSREVQEALLAFGVKARVVERAVLRGASLEIPPGSLVVLAGASGAGKTTLLRLLLGEAPDAGEVAVPPGRRVAYIPGEREVDLGEDPILEAVYRRLKDVGAAIEVLNRVGLSDAVLYRARPHELSTGQRERFRLALLLAERPDLLLIDEFAAHLDVPTARRVALGLGKLCREAGVTLVAATHRPEVVAALDPDLLVYVGYGGLTTVPRRGPRT
MHEYPITKRIIEISQEHANKHNAKEVKQINLVVGDYSGYVASSIELYFGIIAEGTVCENAKLNIKRVKPMLKCNECESLFVRKPFSFECPYCGGQGSPTEIGHEFYIESIEI
MHHHHHHAMNHETFLKRAVTLACEGVNAGIGGPFGAVIVKDGAIIAEGQNNVTTSNDPTAHAEVTAIRKACKVLGAYQLDDCILYTSCEPCPMCLGAIYWARPKAVFYAAEHTDAAEAGFDDSFIYKEIDKPAEERTIPFYQVTLTEHLSPFQAWRNFANKKEY
MHHHHHHSSGRENLYFQGPPARVRVAVRLRPFVDGTAGASDPPCVRGMDSCSLEIANWRNHQETLKYQFDAFYGERSTQQDIYAGSVQPILRHLLEGQNASVLAYGPTGAGKTHTMLGSPEQPGVIPRALMDLLQLTREEGAEGRPWALSVTMSYLEIYQEKVLDLLDPASGDLVIREDCRGNILIPGLSQKPISSFADFERHFLPASRNRTVGATRLNQRSSRSHAVLLVKVDQRERLAPFRQREGKLYLIDLAGSEDNRRTGNKGLRLKESGAINTSLFVLGKVVDALNQGLPRVPYRDSKLTRLLQDSLGGSAHSILIANIAPERRFYLDTVSALNFAARSKEVINRPFTNESLQPHALGPVKLSQKELLGPPEAK
MHHHHHHSSGRENLYFQGVWKSYLYQLQQEAPHPRRITCTCEVENRPKYYGREFHGMISREAADQLLIVAEGSYLIRESQRQPGTYTLALRFGSQTRNFRLYYDGKHFVGEKRFESIHDLVTDGLITLYIETKAAEYIAKMTINPIYEHVGYTTLNREPAYKKHMPVLKETHDERDSTGQDGVSEKRLTSLVRRATLKENEQIPKYEKIHNFKVHTFRGPHWCEYCANFMWGLIAQGVKCADCGLNVHKQCSKMVPNDCKPDLKHVKKVYSCDLTTLVKAHTTKRPMVVDMCIREIESRGLNSEGLYRVSGFSDLIEDVKMAFDRDGEKADISVNMYEDINIITGALKLYFRDLPIPLITYDAYPKFIESAKIMDPDEQLETLHEALKLLPPAHCETLRYLMAHLKRVTLHEKENLMNAENLGIVFGPTLMRSPELDAMAALNDIRYQRLVVELLIKNEDILF
MHHHHHHSSGVDLGTENLYFQSMLNTSGSGTILIDLSPDDKEFQSVEEEMQSTVREHRDGGHAGGIFNRYNILKIQKVCNKKLWERYTHRRKEVSEENHNHANERMLFHGSPFVNAIIHKGFDERHAYIGGMFGAGIYFAENSSKSNQYVYGIGGGTGCPVHKDRSCYICHRQLLFCRVTLGKSFLQFSAMKMAHSPPGHHSVTGRPSVNGLALAEYVIYRGEQAYPEYLITYQIMRPEG
MHHHHHHSSGVDLGTENLYFQSMSHQVGVAGAVFDESTRKILVVQDRNKLKNMWKFPGGLSEPEEDIGDTAVREVFEETGIKSEFRSVLSIRQQHTNPGAFGKSDMYIICRLKPYSFTINFCQEECLRCEWMDLNDLAKTENTTPITSRVARLLLYGYREGFDKIDLTVEELPAVYTGLFYKLYHKELPENYKTMKGID
MHHHHHHSSGVDLGTENLYFQSNAMLDPLDILTNIDDVLPYYQAIFSAEEQKVVGYEVLGRILADSEIQSLGPFFLDAGIPEEYKLEVDNRIIRQALDRFLEADSDLLIFMNQDANLLMLDHGESFLELLKEYEAKGIELHRFVLEITEHNFEGDIEQLYHMLAYYRTYGIKIAVDNIGKESSNLDRIALLSPDLLKIDLQALKVSQPSPSYEHVLYSISLLARKIGAALLYEDIEANFQLQYAWRNGGRYFQGYYLVSPSETFLERDVLKQRLKTEFHQFITHEKKKLETVYEHSEQFYKRVHQAVTSLRKNNLSSDDDFIKKLAEELTDCSFRIYMCDEEGDQLTGNVFKQDGEWIYQPEYAEKNWSWRPYFLENIMRMRNLRKGFFSDLYSDLETGEMIRTFSYPMDDQMYLFIDLPYSYLYEQDGLI
MHHHHHHSSGVDLGTENLYFQSNAMMKAYQREFIEFALEKQVLKFGEFTLKSGRKSPYFFNAGLFNTGRDLARLGRFYAAALVDSGIEFDVLFGPAYKGIPIATTTAVALADHHDVDTPYCFNRKEAKNHGEGGNLVGSKLEGRVMLVDDVITAGTAIRESMELIQANKADLAGVLVAIDRQEKGKGELSAIQEVERDFGCAVISIVSLTDLITYLEQQGNNTEHLEAVKAYRAQYGI
MHHHHHHSSRQEPPKIHLDCPGRIPDTIVVVAGNKLRLDVPISGDPAPTVIWQKAITQGNKAPARPAPDAPEDTGDSDEWVFDKKLLCETEGRVRVETTKDRSIFTVEGAEKEDEGVYTVTVKNPVGEDQVNLTVKVID
MHHQSVLHSGYFHPLLRSWQTAASTVSASNLIYPIFVTDVPDDVQPIASLPGVARYGVNQLEEMLRPLVEAGLRCVLIFGVPSRVPKDEQGSAADSEDSPTIEAVRLLRKTFPSLLVACDVCLCPYTSHGHCGLLSENGAFLSEESRQRLAEVALAYAKAGCQVVAPSDMMDGRVEAIKAALLKHGLGNRVSVMSYSAKFASCFYGPFRDAAQSSPAFGDRRCYQLPPGARGLALRAVARDIQEGADMLMVKPGLPYLDMVREVKDKHPELPLAVYQVSGEFAMLWHGAQAGAFDLRTAVLETMTAFRRAGADIIITYFAPQLLKWLKEE

Soluble on expression in E. coli, not soluble:
MGTYKKEKSRIGREGANEKKPGNLRVKGENFYRNAKDVARVNMYRGGKAKYNAAGELVRAAEFQSSEVPKARIQPDRRWFNNTRVIAQPTLTQFREAMGQKLNDPYQVLLRRNKLPMSLLQENTEIPKVRVLESEPFENTFGPKSQRKRPKISFDSVAELAKESDEKQNAYEEKIEERILANPDESDDVMLAARDAIFSKGQSKRIWNELYKVIDSSDVLIQVLDARDPVGTRCGTVERYLRNEASHKHMILVLNKVDLVPTSVAAAWVKILAKEYPTIAFHASINNSFGKGSLIQILRQFASLHSDKKQISVGLIGFPNAGKSSIINTLRKKKVCNVAPIPGETKVWQYVALMKRIFLIDCPGIVPPSSNDSDAELLLKGVVRVENVSNPEAYIPTVLSRCKVKHLERTYEISGWNDSTEFLAKLAKKGGRLLKGGEPDEASVAKMVLNDFMRGKIPWFIGPKGLSSSNDEINSSQKVATQQTEGSDQDGEEAEEEWHGISDDGKADESESTKPVAEGSASESTDESAVDDNKNRS
MHDALRAYIEKYASEKISDADFEEVKKAFTFKRYKKGQFLLQEGEVSKYTAFVLKGSMRQYSVDAKGTEHIIHFGIENWWVGDRESSTMLTPSNYNIDAIEDTEVLLTTSEDLQQLTAALPVIGKMVNTMNQRNFIASQKRIHDALSLTAEERYLELLKNHPDFLQRFPQTMLASYLGITAETYSRIRKKALK
MHIIFDTSGFLSGLQLSLDRVYTTQEVINEIKDKYSRFNLEIAISSGKVIIMKPSTRSVEKVTKVLNLTKERKLSNTDISVIALALDLQPSIVFTDDLSVQNILKQLGIQFSSVKINKKVEKSFKFKYVCVNCKREFNIDHGECPYCGGKVVKRRIMELEHHHHHH
MHLCGVDYYQIDKQGSCKFRFKATQFYRALKNNKVSLRGIKPKDDGTTGQKLQVIPLLEMLISPGVRICDGGKFYNLQYEKAIRSGKMIVALTCKENNKKYVPQSLLSLINQPRKSQSKSLTESHEVIKISKSELNSTSVIEVYDKF
MHLTREVNIMSILSAVSRVINNFSTEIKNRVVEVGSNLKKSTEEFIGEVVIKAAVNRLKQGMLNALSSSNDTTKDNGNDLSTNSPDIEDVSAPTLSSKKKTEANTTLVGSTGIMQKLLGNIGVNSEQSIEVLSKHFNGAVERFTQDVSKAANEAVCEKIKSIQPEDVVKGINSLIGNTLKVDSESGDTTLSFKLESAVQILGVILAAMGMLMFASQTKSTEQKTLEIEHLPTEEIQPPSLAIH
MHMNAEEIGMALLNGRKELGLRQGELADLAGVSERFIRDVEKGKTTVRLDKVIDVLRVLGLELSVGIHDPLKVNQ
MHMVTYPCLTSRRFQLALIHRRVVDKRTSMHSRTASESTGARIHRPWCARHQVRPAWRCQYDKLHRVPFRSPELRLDSGPGYTTGSYRYMAGDPLEHHHHHH
MHPMNILLKLPLKIPLMIIEKAREILEKHPLCNHCLGRMFAKLGKGTNEERGKAIRLILSMELNREVKEPENCELCQGIFRRMNELLDLVRNAVEDYEFQTFQIGSRFPKDILEKEKKIWEEFGITTGEPINREFNRELGKLFAKVTGKIPNRERPDIVIIVEPFSSKVELQVNPIYVAGRYRKLVRGIPQTPAPGFEESIATIICRVFKKNFRGKCIFKGAGREDVDVRTLGRGRPFVVEIKKPRKRKVDLKLIEEEINSSGKVEVLELKFITPEESEKILTARHKKIYEALVYVKDGVSAEEVEKVVKSLKGSEIKQRTPRRVLNSRADIVRVRRVYNVSGEYIDEHHFKLKLVTDGGLYIKELISGDKGRTKPSVSEILGKEAWCEILDVLDVLDGDENVEGDSLEHHHHHH
MHSDELLVEILVEELPAQALLNEYKEMPKKLHALFNKRALEVGNIEIFYTPRRLCLLIKDFPLLTQETKEEFFGPPVKIACNHQDKTQGLNALGLGFYQKLGLKDHQYFQTAFKNNKEVLYHAKIHEKEPTKDLIMPIVLEFLEGLNFGKSMRWGNVEKSFIRPIHNICVLFNGEDFSGIEVKEYGFKTKQATKVHRQEGFDFIQVDSPKAYFEVLEKNHVILDPKKREAKILQEIKELETKHHIIVETDRDLLDEVVAITEYPSALLGEFDKAFLKLPSEIIITSMKENQRYFATFCQKSQEESPTLHNGFIVVSNAINKDKQKIILGNQKVLKARLSDAVFFYENDLKKPLDNAPLESVVFVQGLGTLKDKMERESIIAQYLTQKYISSLNMPLEKALELVKRAVQIAKADLLSEVVYEFSELQGIMGYYYALKQNENELVALSVKEQYLPASENAPLPSSVFSSIVALSLKLDSLFSLFSVGKIPSGSKDPFALRRLSFGLLKIIAHYGLEFDLKADLKNLFQKVGVYQSFDLEILEKFLLERFHNLIDCNPSIIRSVLNTNERDIVK
MHSENQSKGVHYAKSQRLLEINHAHLQLMESLLDEGKKYNIFKPGIDPLQVNINIAALGGYYLINQHTLGLVYHISMVSPQALEARRKVIKETILSWLLVDPSSTAHE
